These results are taken from patent publication US20250154276A1 (ZONHON BIOPHARMA INSTITUTE, published 2025).

Assay [1] deals with T1, human CD26 (human, UniProt P27487 1-766). Kind of assay: cell-based or functional assay.
Assay [2] deals with T1, human CD26. Kind of assay: cell-based or functional assay. This is another data set of the same source.

B1: 19G294 (bispecific antibody)
chain: DIVMTQSPSSLSVTPGERVSISCRSDKSLLHSNGNTYLYWFLQKPGQSPQVLIYRMSNLASGVPDRFSGSGSGTDFTLTISRVEAEDVGVYYCFQQLEYPYTFGQGTKLEIKGGGGSGGGGSGGGGSEVQLVQSGAELVKPGASVKLSCAASGFNIKDTYIYWVRQAPGQGLEWVGRIEPMNGNTKYDPKFQGRFTMTANTSKNTAYLQLSSLRSEDTAVYYCSRGGWLLLYVMDYWGQGTLVTVSSGGGGSDVQLVQSGAEVKKPGASVKVSCKASGYTFTRYTMHWVRQAPGQGLEWIGYINPSRGYTNYADSVKGRFTITTDKSTSTAYMELSSLRSEDTATYYCARYYDDHYCLDYWGQGTTVTVSSGGGGSGGGGSGGGGSDIVLTQSPATLSLSPGERATLSCRASQSVSYMNWYQQKPGKAPKRWIYDTSKVASGVPARFSGSGSGTDYSLTINSLEAEDAATYYCQQWSSNPLTFGGGTKVEIK
For B1, the “IC50 values (pM) of different bispecific antibodies mediating PBMC cytotoxicity to OS-RC-2” value in assay [1] was 9.9 pM. In assay [2], the “IC50 values (pM) of different bispecific antibodies mediating PBMC cytotoxicity to different target cells (786-0)” value is 4.7 pM, the “IC50 values (pM) of different bispecific antibodies mediating PBMC cytotoxicity to different target cells (NCI-H226)” value is 13.7 pM, the “IC50 values (pM) of different bispecific antibodies mediating PBMC cytotoxicity to different target cells (OS-RC-2)” value worked out at 9.9 pM and the “IC50 values (pM) of different bispecific antibodies mediating PBMC cytotoxicity to different target cells (PC-3)” value is 4 pM.

B2: 18G272 (bispecific antibody)
chain: DIVMTQSASSLPVTPGEPASISCRSDKSLLHSNGNTYLYWFLQKPGQSPQVLIYRMSNLASGVPDRFSGSGSGTDFTLTISRVEAEDVGVYYCFQQLEYPYTFGQGTKLEIKGGGGSGGGGSGGGGSQVQLVQSGAEVVKPGASVKISCKASGFNIKDTYIYWVRQRTGQGLEWIGRIEPMNGNTKYDPKFQGRLTMTANTSKNTAYLQLSSLTSEDTAVYYCSRGGWLLLYVMDYWGQGTTVTVSSGGGGSDVQLVQSGAEVKKPGASVKVSCKASGYTFTRYTMHWVRQAPGQGLEWIGYINPSRGYTNYADSVKGRFTITTDKSTSTAYMELSSLRSEDTATYYCARYYDDHYCLDYWGQGTTVTVSSGGGGSGGGGSGGGGSDIVLTQSPATLSLSPGERATLSCRASQSVSYMNWYQQKPGKAPKRWIYDTSKVASGVPARFSGSGSGTDYSLTINSLEAEDAATYYCQQWSSNPLTFGGGTKVEIK
Consider B2, for which, in assay [2], the “IC50 values (pM) of different bispecific antibodies mediating PBMC cytotoxicity to different target cells (786-0)” value amounted to 41.4 pM, the “IC50 values (pM) of different bispecific antibodies mediating PBMC cytotoxicity to different target cells (NCI-H226)” value is 2.6 pM, the “IC50 values (pM) of different bispecific antibodies mediating PBMC cytotoxicity to different target cells (OS-RC-2)” value was 5.2 pM and the “IC50 values (pM) of different bispecific antibodies mediating PBMC cytotoxicity to different target cells (PC-3)” value was 6.9 pM.

B3: ZA23 (bispecific antibody, human IgG1, kappa)
heavy 1: QVQLVQSGAEVVKPGASVKISCKASGFNIKDTYIYWVRQRTGQGLEWIGRIEPMNGNTKYDPKFQGRLTMTANTSKNTAYLQLSSLTSEDTAVYYCSRGGWLLLYVMDYWGQGTTVTVSSASTKGPSVFPLAPSSKSTSGGTAALGCLVKDYFPEPVTVSWNSGALTSGVHTFPAVLQSSGLYSLSSVVTVPSSSLGTQTYICNVNHKPSNTKVDKKVEPKSCDKTHTCPPCPAPEFLGGPSVFLFPPKPKDTLMISRTPEVTCVVVDVSQEDPEVQFNWYVDGVEVHNAKTKPREEQFNSTYRVVSVLTVLHQDWLNGKEYKCKVSNKGLPSSIEKTISKAKGQPREPQVYTLPPCQEEMTKNQVSLWCLVKGFYPSDIAVEWESNGQPENNYKTTPPVLDSDGSFFLYSRLTVDKSRWQEGNVFSCSVMHEALHNHYTQKSLSLSLGK
light 1: DIVMTQSASSLPVTPGEPASISCRSDKSLLHSNGNTYLYWFLQKPGQSPQVLIYRMSNLASGVPDRFSGSGSGTDFTLTISRVEAEDVGVYYCFQQLEYPYTFGQGTKLEIKRTVAAPSVFIFPPSDEQLKSGTASVVCLLNNFYPREAKVQWKVDNALQSGNSQESVTEQDSKDSTYSLSSTLTLSKADYEKHKVYACEVTHQGLSSPVTKSFNRGEC
heavy 2: DVQLVQSGAEVKKPGASVKVSCKASGYTFTRYTMHWVRQAPGQGLEWIGYINPSRGYTNYADSVKGRFTITTDKSTSTAYMELSSLRSEDTATYYCARYYDDHYCLDYWGQGTTVTVSSASTKGPSVFPCAPSSKSTSGGTAALGCLVKDYFPEPVTVSWNSGALTSGVHTFPAVLQSSGLYSLSSVVTVPSSSLGTQTYICNVNHKPSNTKVDKKVEPKSSDKTHTCPPCPAPEFLGGPSVFLFPPKPKDTLMISRTPEVTCVVVDVSQEDPEVQFNWYVDGVEVHNAKTKPREEQFNSTYRVVSVLTVLHQDWLNGKEYKCKVSNKGLPSSIEKTISKAKGQPREPQVCTLPPSQEEMTKNQVSLSCAVKGFYPSDIAVEWESNGQPENNYKTTPPVLDSDGSFFLVSRLTVDKSRWQEGNVFSCSVMHEALHNHYTQKSLSLSLGK
light 2: DIVLTQSPATLSLSPGERATLSCRASQSVSYMNWYQQKPGKAPKRWIYDTSKVASGVPARFSGSGSGTDYSLTINSLEAEDAATYYCQQWSSNPLTFGGGTKVEIKRTVAAPSVFICPPSDEQLKSGTASVVCLLNNFYPREAKVQWKVDNALQSGNSQESVTEQDSKDSTYSLSSTLTLSKADYEKHKVYACEVTHQGLSSPVTKSFNRGES
For the molecule B3, in assay [1], the “IC50 values (pM) of different bispecific antibodies mediating PBMC cytotoxicity to OS-RC-2” value is 87.5 pM.

B4: ZA16 (bispecific antibody, human IgG1, kappa)
heavy 1: not shown
light 1: DIVMTQSPSSLSVTPGERVSISCRSDKSLLHSNGNTYLYWFLQKPGQSPQVLIYRMSNLASGVPDRFSGSGSGTDFTLTISRVEAEDVGVYYCFQQLEYPYTFGQGTKLEIKRTVAAPSVFIFPPSDEQLKSGTASVVCLLNNFYPREAKVQWKVDNALQSGNSQESVTEQDSKDSTYSLSSTLTLSKADYEKHKVYACEVTHQGLSSPVTKSFNRGEC
heavy 2: not shown
light 2: DIVLTQSPATLSLSPGERATLSCRASQSVSYMNWYQQKPGKAPKRWIYDTSKVASGVPARFSGSGSGTDYSLTINSLEAEDAATYYCQQWSSNPLTFGGGTKVEIKRTVAAPSVFICPPSDEQLKSGTASVVCLLNNFYPREAKVQWKVDNALQSGNSQESVTEQDSKDSTYSLSSTLTLSKADYEKHKVYACEVTHQGLSSPVTKSFNRGES
For the molecule B4, the “IC50 values (pM) of different bispecific antibodies mediating PBMC cytotoxicity to OS-RC-2” value in assay [1] turned out to be 5.8 pM.
